The text below walks through data of publication PMC12049912 (2025).

The target in experiment [1] is T1, p68 S551F (mp68; DDX5 S551F) peptide on H-2Kb (mouse).
T1 peptide: SNFVFAGI
The experiment is described as follows: multimer staining.

Experiment [2] concerns the target T1, p68 S551F (mp68; DDX5 S551F) peptide on …. Nature of the experiment: cytokine release.

B1: T3-3/2 (TCR)
alpha TRAV19 TRAJ40 CDR3: CAAGGVNTGNYKYVF
beta TRBV12-1 TRBJ2-1 CDR3: CASSLRGYAEQFF
For B1, the binding result in experiment [1] is “no recognition”.

B2: T3-3 (TCR)
alpha TRAV13-4 TRAJ30 CDR3: CAMEHDTNAYKVIF
beta TRBV12-1 TRBJ2-1 CDR3: CASSLRGYAEQFF
As to B2, the binding result in experiment [1] is “no recognition”.

B3: 1D9 (TCR)
alpha TRAV1 TRAJ30 CDR3: CAVRSDTNAYKVIF
beta TRBV19 TRBJ2-7 CDR3: CASSKRLSSYEQYF
For the molecule B3, in experiment [2], the binding result is “recognises”.

B4: T1-3 (TCR)
alpha TRAV19 TRAJ40 CDR3: CAAGGFNTGNYKYVF
beta TRBV19 TRBJ2-7 CDR3: CASSIRQGSGEQYF
On to B4, for which the binding result in experiment [1] is on record as “no recognition”.
